The results in this text go back to article PMC5032119.

The target of this experiment is Ku70-HisTag (mouse) (UniProt P23475). Briefly: fluorescence polarisation; FIDA-PO on an MF20 (Olympus) single molecule fluorescence spectroscopy; 5 nM fluorescent Ku70-HisTag in solution, 500 nM GST-HttExon1-110Q added; 40 ul per well, 384-well glass-bottom plate, PBS with 0.01% Tween 20 and 1% DMSO, room temperature.
Chain of UniProt P23475 (P23475 whole entry): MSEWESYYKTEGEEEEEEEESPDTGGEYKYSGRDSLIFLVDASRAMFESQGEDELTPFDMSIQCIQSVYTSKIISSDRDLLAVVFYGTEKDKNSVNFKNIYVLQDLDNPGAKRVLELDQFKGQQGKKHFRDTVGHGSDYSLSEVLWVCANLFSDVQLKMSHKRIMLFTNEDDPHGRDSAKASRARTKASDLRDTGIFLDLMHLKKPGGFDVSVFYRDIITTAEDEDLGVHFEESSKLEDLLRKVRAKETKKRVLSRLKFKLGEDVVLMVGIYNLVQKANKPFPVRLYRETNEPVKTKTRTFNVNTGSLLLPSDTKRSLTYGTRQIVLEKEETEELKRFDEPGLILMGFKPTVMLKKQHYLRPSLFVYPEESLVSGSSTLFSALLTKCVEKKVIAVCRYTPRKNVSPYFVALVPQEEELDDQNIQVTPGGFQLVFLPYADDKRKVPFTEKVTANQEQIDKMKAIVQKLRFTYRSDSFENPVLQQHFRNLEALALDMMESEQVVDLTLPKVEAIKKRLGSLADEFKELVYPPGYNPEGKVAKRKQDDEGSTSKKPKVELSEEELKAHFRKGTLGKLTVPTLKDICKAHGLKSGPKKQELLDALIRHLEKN

Chain of GST-HttExon1-110Q (P42858 whole entry, change not shown): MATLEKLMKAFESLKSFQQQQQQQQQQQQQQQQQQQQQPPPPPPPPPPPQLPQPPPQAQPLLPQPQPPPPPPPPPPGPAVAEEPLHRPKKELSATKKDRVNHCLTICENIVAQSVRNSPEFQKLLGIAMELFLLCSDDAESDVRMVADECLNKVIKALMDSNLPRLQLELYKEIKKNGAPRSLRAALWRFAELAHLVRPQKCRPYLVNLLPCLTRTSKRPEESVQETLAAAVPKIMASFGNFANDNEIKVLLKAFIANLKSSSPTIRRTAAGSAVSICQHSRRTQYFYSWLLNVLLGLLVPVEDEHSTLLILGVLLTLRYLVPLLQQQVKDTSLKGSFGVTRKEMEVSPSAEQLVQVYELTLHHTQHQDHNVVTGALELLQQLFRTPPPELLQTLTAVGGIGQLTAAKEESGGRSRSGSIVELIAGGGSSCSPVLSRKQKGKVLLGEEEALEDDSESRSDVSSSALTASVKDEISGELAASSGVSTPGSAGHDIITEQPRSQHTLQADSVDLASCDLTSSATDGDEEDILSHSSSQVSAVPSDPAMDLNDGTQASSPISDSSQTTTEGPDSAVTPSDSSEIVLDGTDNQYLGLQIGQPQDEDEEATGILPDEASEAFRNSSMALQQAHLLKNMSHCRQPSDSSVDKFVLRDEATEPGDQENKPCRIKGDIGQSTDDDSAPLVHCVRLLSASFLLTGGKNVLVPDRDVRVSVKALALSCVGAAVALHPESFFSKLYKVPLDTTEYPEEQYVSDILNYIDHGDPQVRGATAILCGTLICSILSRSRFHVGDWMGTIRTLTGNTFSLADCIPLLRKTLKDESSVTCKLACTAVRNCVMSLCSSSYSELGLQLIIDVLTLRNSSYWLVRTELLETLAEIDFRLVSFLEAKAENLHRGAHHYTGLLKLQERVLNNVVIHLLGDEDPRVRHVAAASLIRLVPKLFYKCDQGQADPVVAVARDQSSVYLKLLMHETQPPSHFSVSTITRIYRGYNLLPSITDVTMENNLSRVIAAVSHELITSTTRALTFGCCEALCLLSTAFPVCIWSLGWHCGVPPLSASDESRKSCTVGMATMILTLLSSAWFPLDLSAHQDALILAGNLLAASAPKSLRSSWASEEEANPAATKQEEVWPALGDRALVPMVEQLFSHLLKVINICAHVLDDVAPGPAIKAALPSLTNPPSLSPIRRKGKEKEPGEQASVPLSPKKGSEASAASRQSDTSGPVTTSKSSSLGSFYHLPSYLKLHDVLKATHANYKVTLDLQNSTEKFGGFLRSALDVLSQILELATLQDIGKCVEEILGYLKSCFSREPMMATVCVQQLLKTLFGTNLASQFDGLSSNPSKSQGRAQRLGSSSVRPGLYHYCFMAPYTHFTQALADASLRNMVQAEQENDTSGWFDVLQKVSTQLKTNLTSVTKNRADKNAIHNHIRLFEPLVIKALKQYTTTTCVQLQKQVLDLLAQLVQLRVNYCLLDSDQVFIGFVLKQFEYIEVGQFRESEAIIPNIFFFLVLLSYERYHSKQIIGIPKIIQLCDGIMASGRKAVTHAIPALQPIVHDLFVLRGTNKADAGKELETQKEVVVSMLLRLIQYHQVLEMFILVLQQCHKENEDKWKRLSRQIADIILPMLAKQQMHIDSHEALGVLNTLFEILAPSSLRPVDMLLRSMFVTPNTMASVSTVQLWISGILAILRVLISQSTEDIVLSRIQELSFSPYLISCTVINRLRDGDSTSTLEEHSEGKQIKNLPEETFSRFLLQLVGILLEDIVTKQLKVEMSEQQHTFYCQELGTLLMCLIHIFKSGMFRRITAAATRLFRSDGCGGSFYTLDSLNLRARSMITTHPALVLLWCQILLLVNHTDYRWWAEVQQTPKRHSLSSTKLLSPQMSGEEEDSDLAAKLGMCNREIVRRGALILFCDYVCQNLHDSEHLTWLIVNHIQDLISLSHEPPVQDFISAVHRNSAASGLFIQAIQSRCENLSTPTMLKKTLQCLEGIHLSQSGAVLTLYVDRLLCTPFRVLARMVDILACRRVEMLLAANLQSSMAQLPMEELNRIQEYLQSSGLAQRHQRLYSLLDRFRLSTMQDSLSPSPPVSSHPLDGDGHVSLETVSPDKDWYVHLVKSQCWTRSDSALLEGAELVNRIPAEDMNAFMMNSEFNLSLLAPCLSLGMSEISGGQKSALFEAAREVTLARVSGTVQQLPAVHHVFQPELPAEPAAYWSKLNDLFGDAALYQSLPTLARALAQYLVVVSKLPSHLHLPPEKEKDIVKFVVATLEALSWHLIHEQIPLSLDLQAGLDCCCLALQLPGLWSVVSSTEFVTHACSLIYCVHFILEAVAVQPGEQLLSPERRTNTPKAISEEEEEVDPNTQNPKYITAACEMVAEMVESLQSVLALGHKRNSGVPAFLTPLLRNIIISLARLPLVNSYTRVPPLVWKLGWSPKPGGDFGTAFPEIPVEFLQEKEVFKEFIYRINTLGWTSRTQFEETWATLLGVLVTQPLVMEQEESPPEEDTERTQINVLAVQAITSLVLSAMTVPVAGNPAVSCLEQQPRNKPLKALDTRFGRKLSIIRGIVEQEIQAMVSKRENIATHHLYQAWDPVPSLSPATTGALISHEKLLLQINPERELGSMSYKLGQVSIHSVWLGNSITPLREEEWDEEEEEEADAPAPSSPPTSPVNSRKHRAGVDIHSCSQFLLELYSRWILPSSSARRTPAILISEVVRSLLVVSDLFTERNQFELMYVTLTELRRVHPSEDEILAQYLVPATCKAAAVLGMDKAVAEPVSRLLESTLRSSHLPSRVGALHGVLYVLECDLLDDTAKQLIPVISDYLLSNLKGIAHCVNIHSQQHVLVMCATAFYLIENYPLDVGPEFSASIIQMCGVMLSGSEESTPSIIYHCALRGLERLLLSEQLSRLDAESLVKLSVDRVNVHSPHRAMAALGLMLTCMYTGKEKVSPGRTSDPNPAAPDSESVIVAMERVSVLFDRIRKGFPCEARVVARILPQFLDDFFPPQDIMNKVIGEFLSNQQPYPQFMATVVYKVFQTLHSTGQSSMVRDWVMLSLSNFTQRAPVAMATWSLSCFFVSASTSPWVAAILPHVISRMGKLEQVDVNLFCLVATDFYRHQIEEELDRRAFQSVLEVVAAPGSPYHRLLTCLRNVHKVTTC

For the substance GST-HttExon1-110Q (domain or fragment), the fluorescence polarization score amounted to 140.
